experiment: soluble on expression in E. coli; label from the status in PepcDB or PDB records

Row | Sequence | soluble on expression in E. coli
1 | MGSDKIHHHHHHMELKSAEEKSLYYRNKIKEVIDEVGKVVVGQKYMINRLLIGICTGGHILLEGVPGLAKTLSVNTLAKTMDLDFHRIQFTPDLLPSDLIGTMIYNQHKGNFEVKKGPVFSNFILADEVNRSPAKVQSALLECMQEKQVTIGDTTYPLDNPFLVLATQNPVEQEGTYPLPEAQVDRFMMKIHLTYLDKESELEVMRRVSNMNFNYQVQKIVSKNDVLEIRNEINKVTISESLEKYIIELVFATRFPAEYGLEAEASYILYGASTRAAINLNRVAKAMAFFNNRDYVLPEDIKEVAYDILNHRIILNYEAEAEGISTRQIIETILRKVNITKA | not soluble
2 | GKAVIAIHGGAGAISRAQMSLQQELRYIEALSAIVETGQKMLEAGESALDVVTEAVRLLEECPLFNAGIGAVFTRDETHELDACVMDGNTLKAGAVAGVSHLRNPVLAARLVMEQSPHVMMIGEGAENFAFARGMERVSPEIFSTSLRYEQLLAARKEGATVLDHSGAPLDEKQKMGAVGAVALDLDGNLAAATSTGGMTNKLPGRVGDSPLVGAGCYANNASVAVSCTGTGEVFIRALAAYDIAALMDYGGLSLAEACERVVMEKLPALGGSGGLIAIDHEGNVALPFNTEGMYRAWGYAGDTPTTGIYREKGDTVATQ | soluble
3 | MGSDKIHHHHHHMCQRPPARRATGPFPTLTASRAAARACTVTFQPNCARPCVRQRPEAAIDMAKTYNPAHADISPAARLAALGAGEAVDLGEYRVIRATHQDRPVFFAVRNAMDAIQKHHIEGAFYETEELDIIRRHFAPGETFIDLGANVGNHALYVAMYLEPAKVLCVEPNSLAYENLLANIVLNGVEETFDLSWLGFGVSCNVGDGFGITHWVHNLGGGKLIPRDGGTISLRSGDDILADTKADFIKIDVEGMEMDVLTSLENTVARDRPKIFVEVDNENRDAVLAWVDTHGYTTHETFKRYRDNENFLFVPESESET | not soluble
4 | MNMANVKIKIRDGLIDRLRNMSGITSDEAFARTIGTSRSTLVDVKTGEREPSLAFAIGIAQAFGLGLSEIVTWETETTAA | not soluble
5 | MDITNIKEMNYEEVFSITITVDKPILIGQDDIVGRRQLIPIISGKVSGNNFNGKVLPGGIDSQIVRPDGKCELSARYAIRLDDGAAIYIENNGIRTVPDEYIEAVKSGEFVDPNAYYFRTIPTFETYSPKYKWMMNHIFVCCASRLPENVLLKFYKIS | soluble
6 | MITLPTGTKIWIIAGITDMRCGFNGLASKVQNTLKDDPFSGHIFVFRGRSGKMVKILWADRDGLCLFAKRLERGRFVWPVTREGKVHLTPAQLSMLLEGIAWPHPKRTERPGIRI | not soluble
7 | MHEITLCQRALELIEQQAAKHGAKRVTGVWLKIGAFSCVETSSLAFCFDLVCRGSVAEGCKLHLEEQEAECWCETCQQYVTLLTQRVRRCPQCHGDMLQIVADDGLQIRRIEIDQE | soluble
8 | MSVSARSAAAEERSVNCGTMAQPKNLEGYVGFANLPNQVYRKSVKRGFEFTLMVVGESGLGKSTLINSLFLTDLYSPEYPGPSHRIKKTVQVEQSKVLIKEGGVQLLLTIVDTPGFGDAVDNSNCWQPVIDYIDSKFEDYLNAESRVNRRQMPDNRVQCCLYFIAPSGHGLKPLDIEFMKRLHEKVNIIPLIAKADTLTPEECQQFKKQIMKEIQEHKIKIYEFPETDDEEENKLVKKIKDRLPLAVVGSNTIIEVNGKRVRGRQYPWGVAEVENGEHCDFTILRNMLIRTHMQDLKDVTNNVHYENYRSRKLAAVTYNGVDNNKNKGQLTKSPLAQMEEERREHVAKMKKMEMEMEQVFEMKVKEKVQKLKDSEAELQRRHEQMKKNLEAQHKELEEKRRQFEEEKANWEAQQRILEQQNSSRTLEKNKKKGKIF | not soluble
9 | NVPELIGAQAHAVNVILDAETAYPNLIFSDDLKSVRLGNKWERLPDGPQRFDSCIIVLGSPSFLSGRRYWEVEVGDKTAWILGACKTSISRKGNMTLSPENGYWVVIMMKENEYQASSVPPTRLLIKEPPKRVGIFVDYRVGSISFYNVTARSHIYTFASCSFSGPLQPIFSPGTRDGGKNTAPLTICPVG | soluble
10 | MVKIGVCGPVGSGKTALIEALTRHMSKDYDMAVITNDIYTKEDAEFMCKNSVMPRERIIGVETGGCPHTAIREDASMNLEAVEEMHGRFPNLELLLIESGGDNLSATFNPELADFTIFVIDVAEGDKIPRKGGPGITRSDLLVINKIDLAPYVGADLKVMERDSKKMRGEKPFIFTNIRAKEGLDDVIAWIKRNALLEDLEHHHHHH | soluble

— the DeepSol protein solubility set
